Measurements: article PMC9896810, “Crk proteins activate the Rap1 guanine nucleotide exchange factor C3G by segregated adaptor-dependent and -independent mechanisms” (Cell Communication and Signaling : CCS, 2023)
Several values for one entry are separate records, joined by “and”; a condition that tells them apart may be missing. Equal values may be shown once. Blank lines part the entries; values can stand above or below the binder they belong to.

Legend:
Details in all cases: both partners purified
[1] = target: T1, C3G (full-length, residues 4-1077) (human, UniProt Q13905-1 4-1077); test: ITC; C3G or pC3G in the cell titrated with the Crk protein, 25 °C, 300 mM NaCl, pH 7.5; global fit of three titrations with SEDPHAT, three symmetric binding sites, microscopic kd
T1 construct: also called C3G WT; RapGEF1; source: E. coli BL21 (DE3), purified (IMAC, TEV digestion, reversed IMAC, SEC); not shown: His, N-terminal, cleaved; Halo, N-terminal, cleaved
T1 sequence (looked up): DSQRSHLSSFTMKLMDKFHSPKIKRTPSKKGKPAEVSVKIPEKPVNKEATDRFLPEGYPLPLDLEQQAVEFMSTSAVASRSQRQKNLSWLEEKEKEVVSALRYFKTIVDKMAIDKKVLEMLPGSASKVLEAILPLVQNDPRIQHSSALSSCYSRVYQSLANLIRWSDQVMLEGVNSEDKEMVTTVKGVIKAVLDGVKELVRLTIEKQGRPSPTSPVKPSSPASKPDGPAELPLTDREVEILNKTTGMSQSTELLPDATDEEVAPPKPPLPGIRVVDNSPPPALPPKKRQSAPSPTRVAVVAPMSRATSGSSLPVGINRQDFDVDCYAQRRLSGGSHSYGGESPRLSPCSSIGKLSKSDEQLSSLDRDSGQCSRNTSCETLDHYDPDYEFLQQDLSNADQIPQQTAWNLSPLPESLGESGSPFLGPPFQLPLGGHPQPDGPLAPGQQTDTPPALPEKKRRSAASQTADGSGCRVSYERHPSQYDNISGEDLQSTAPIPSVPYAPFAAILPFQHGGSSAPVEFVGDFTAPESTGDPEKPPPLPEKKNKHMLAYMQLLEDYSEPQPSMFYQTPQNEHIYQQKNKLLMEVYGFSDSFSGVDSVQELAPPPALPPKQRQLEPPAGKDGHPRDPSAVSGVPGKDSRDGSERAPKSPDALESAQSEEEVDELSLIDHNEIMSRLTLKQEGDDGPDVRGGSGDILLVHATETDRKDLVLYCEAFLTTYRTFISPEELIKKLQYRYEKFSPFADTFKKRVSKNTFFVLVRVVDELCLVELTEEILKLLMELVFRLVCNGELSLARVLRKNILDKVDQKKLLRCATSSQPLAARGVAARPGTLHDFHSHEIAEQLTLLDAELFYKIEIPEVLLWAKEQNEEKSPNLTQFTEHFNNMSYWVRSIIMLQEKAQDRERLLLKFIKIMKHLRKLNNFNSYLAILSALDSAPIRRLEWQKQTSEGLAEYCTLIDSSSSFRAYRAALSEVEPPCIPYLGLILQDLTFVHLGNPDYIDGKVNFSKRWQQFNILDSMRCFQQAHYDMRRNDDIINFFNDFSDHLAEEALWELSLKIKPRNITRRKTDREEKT

C3G-AAAP = target: T2, C3G-AAAP (human, UniProt Q13905-1 4-1077, P283A | P284A | L286 | P287 | P289A | P453A | P454A | L456A | P457A | K459A | …); test: ITC; single-PRM mutant of C3G in the cell titrated with CrkL or CrkL-SH3N, 25 °C, 300 mM NaCl, pH 7.5; SEDPHAT, 1:1 heteroassociation model; N is the competent fraction of C3G
T2 construct: human C3G isoform a, residues 4-1077; only P4 kept, P1, P2 and P3 mutated to Ala; source: E. coli BL21 (DE3), purified (IMAC, TEV digestion, reversed IMAC, SEC); not shown: His, N-terminal, cleaved; Halo, N-terminal, cleaved
T2 sequence (looked up): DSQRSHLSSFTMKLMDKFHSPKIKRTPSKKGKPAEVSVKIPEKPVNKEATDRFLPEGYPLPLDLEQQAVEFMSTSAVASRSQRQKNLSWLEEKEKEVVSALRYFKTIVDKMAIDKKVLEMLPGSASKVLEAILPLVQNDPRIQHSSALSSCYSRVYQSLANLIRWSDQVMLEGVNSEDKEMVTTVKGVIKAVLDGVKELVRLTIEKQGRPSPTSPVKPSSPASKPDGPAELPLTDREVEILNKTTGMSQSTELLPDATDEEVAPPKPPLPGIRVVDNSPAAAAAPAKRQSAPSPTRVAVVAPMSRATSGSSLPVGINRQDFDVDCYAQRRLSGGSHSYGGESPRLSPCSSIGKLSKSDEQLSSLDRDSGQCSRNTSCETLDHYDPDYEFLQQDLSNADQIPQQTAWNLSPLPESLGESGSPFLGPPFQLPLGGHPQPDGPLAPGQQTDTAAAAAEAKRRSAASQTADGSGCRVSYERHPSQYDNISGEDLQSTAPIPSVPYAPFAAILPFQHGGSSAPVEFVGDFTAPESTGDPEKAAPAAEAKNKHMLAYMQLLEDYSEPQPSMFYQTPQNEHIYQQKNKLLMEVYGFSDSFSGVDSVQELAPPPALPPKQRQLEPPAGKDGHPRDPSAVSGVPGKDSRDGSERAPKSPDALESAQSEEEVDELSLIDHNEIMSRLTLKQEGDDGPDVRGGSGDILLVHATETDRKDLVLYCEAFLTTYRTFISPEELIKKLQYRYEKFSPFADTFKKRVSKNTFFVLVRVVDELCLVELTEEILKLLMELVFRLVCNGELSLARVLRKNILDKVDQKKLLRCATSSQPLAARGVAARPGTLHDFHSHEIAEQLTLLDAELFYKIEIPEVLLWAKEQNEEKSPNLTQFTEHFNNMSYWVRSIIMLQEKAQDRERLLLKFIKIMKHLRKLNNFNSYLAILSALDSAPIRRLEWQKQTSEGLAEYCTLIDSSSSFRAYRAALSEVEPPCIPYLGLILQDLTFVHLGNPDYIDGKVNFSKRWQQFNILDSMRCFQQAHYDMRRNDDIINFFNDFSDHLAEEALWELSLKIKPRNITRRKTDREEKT

[2] = target: T1, C3G (full-length, residues 4-1077); test: ITC; C3G in the cell titrated with CrkL in the syringe, 25 °C, 300 mM NaCl, pH 7.5; each titration analysed individually with Origin ITC, independent-site model

Kd [1]: 1600 nM
Kd (C3G-AAAP): 2700 nM
stoichiometry N (C3G-AAAP): 0.71
B1: CrkL-SH3N (domain or fragment, human, UniProt P46109 125-182, looked up)
chain: LEYVRTLYDFPGNDAEDLPFKKGEILVIIEKPEEQWWSARNKDGRVGMIPVPYVEKLV
notes: human CrkL, SH3N domain, residues 125-182, in pETEV15b; source: E. coli BL21 (DE3), purified (IMAC, TEV digestion, SEC); not shown: His, N-terminal, cleaved

Kd [2]: 3300 nM
stoichiometry N [2]: 3.2 and 2.8 and 2.9
Kd (C3G-AAAP): 2400 nM
B2: CrkL (full-length) (natural protein, human, UniProt P46109 1-303, looked up)
chain: MSSARFDSSDRSAWYMGPVSRQEAQTRLQGQRHGMFLVRDSSTCPGDYVLSVSENSRVSHYIINSLPNRRFKIGDQEFDHLPALLEFYKIHYLDTTTLIEPAPRYPSPPMGSVSAPNLPTAEDNLEYVRTLYDFPGNDAEDLPFKKGEILVIIEKPEEQWWSARNKDGRVGMIPVPYVEKLVRSSPHGKHGNRNSNSYGIPEPAHAYAQPQTTTPLPAVSGSPGAAITPLPSTQNGPVFAKAIQKRVPCAYDKTALALEVGDIVKVTRMNINGQWEGEVNGRKGLFPFTHVKIFDPQNPDENE
notes: human CrkL, residues 1-303, in pETEV15b; also called Crk-like protein; source: E. coli BL21 (DE3), purified (IMAC, TEV digestion, SEC); not shown: His, N-terminal, cleaved
